We go through seven substances from patent publication US20240238451A1.

Some targets named below: EGFP [GFP: P42212]; ALFA-tagged GAL4-VP16; mCherry.
Holding throughout (test): cell-based or functional assay

For Gluc-biNIR-FbGFP fusion, in the test with EGFP [GFP: P42212], the reduction of secreted Gluc signal with mTagBFP2 instead of EGFP (HeLa) came to 78%. For NIR-FbGFP-GAL4 fusion, in the test with EGFP [GFP: P42212], the decrease of Gluc bioluminescent signal with mTagBFP2 instead of EGFP (GAL4/UAS reporter, HeLa) was found to be 25 fold and the reduction of mCherry reporter level in the absence of EGFP (pUAS-mCherry reporter) turned out to be 3 fold.

In the test with ALFA-tagged GAL4-VP16, NIR-FbGFP-NbALFA (bispecific antibody) returned a reduction of Gluc signal without EGFP against EGFP-expressing cells (ALFA-GAL4, pUAS-Gluc, HeLa) of 75%. With “NIR-FbmCherry-NbGFP fusion (bispecific antibody)”, in the test with EGFP [GFP: P42212], the reduction in EGFP fluorescence in the absence of mCherry was 60%. In the test with EGFP [GFP: P42212], biNIR-FbGFP-GAL4 displayed a decrease of Gluc signal with mTagBFP2 instead of EGFP (GAL4/UAS reporter, HeLa) of 50 fold. “biNIR-FbGFP-NbALFA (bispecific antibody)” displayed a reduction of Gluc signal in the absence of EGFP (ALFA-GAL4, pUAS-Gluc, HeLa) with ALFA-tagged GAL4-VP16 of 85%. In the test with EGFP [GFP: P42212], “bispecific NIR-FbGFP-NIR-FbmCherry fusion (bispecific antibody)” returned a drop of NIR fluorescence when only mCherry (no EGFP) is co-expressed of 10 fold. The drop of NIR fluorescence when only EGFP (no mCherry) is co-expressed with mCherry worked out at 10 fold.
